The values that follow come from patent US20040115195A1.

The target in this experiment is PTH-1 receptor (human) (UniProt Q03431). Kind of experiment: cell-based or functional assay.
Chain of UniProt Q03431 (Q03431 27-593): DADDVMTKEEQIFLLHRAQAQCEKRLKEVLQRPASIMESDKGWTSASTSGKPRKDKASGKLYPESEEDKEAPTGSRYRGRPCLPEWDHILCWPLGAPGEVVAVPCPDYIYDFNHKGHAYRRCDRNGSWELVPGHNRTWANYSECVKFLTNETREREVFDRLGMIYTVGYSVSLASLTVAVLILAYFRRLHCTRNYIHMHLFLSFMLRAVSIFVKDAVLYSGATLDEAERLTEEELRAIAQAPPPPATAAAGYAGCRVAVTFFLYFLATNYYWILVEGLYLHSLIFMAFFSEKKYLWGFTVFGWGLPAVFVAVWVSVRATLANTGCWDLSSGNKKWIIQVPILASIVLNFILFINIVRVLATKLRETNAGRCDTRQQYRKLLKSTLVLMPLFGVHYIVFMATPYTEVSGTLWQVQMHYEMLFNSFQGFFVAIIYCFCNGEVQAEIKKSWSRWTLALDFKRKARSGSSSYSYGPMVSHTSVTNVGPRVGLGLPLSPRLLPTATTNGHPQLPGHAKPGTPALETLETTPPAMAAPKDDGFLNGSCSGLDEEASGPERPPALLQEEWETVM

“human PTH 1-34 (from UniProt P01270 32-65) (peptide)” registered an intracellular cAMP levels in hOB-01-C1-PS-09 cells preincubated 48 hr at 39 C, treated 10 min at 37 C of 5 to 6 fold.
